Measured values taken from US20250059282A1 (University of Texas, published 2025).
Where a chain is given by its changes, count along the chain named. Where two headings read alike, the source gives them in different places.

T1: Cyno PD-L2-Fc (cynomolgus, UniProt A0A2K5U5Z4 20-220)
T1 construct: also called cynomolgus PD-L2; not shown: Fc
T1 sequence: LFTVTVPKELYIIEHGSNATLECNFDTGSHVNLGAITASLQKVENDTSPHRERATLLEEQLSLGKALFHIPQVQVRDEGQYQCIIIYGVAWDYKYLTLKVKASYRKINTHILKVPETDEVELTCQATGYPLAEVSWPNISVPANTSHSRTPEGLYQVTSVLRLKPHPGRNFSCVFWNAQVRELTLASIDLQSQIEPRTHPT

T2: Mouse PD-L2-Fc (mouse, UniProt Q9WUL5 20-219, limits assumed)
T2 construct: also called murine PD-L2; not shown: Fc
T2 sequence (looked up): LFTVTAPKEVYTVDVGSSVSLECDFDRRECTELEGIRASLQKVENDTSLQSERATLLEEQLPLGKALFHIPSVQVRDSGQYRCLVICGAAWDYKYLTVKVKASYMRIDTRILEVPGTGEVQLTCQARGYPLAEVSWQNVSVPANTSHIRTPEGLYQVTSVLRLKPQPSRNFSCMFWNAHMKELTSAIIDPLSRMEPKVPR

T3: Human PD-L2-HIS (human, UniProt Q9BQ51 20-220)
T3 construct: also called His-tagged human PD-L2; not shown: His tag
T3 sequence: T1 sequence with A19V, S62P, L67S, I139V, H166P, A178T, Q179H, I194M

T4: human PD-L2 on CHO cells (human, UniProt Q9BQ51 20-273)
T4 sequence: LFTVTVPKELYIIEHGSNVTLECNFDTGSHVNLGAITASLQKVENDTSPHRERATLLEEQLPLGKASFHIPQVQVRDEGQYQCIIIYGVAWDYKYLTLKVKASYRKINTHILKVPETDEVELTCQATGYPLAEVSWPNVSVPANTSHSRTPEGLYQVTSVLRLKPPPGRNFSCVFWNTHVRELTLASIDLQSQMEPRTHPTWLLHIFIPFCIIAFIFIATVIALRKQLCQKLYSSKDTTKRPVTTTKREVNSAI

T5: Human PD-L2-Fc (human, UniProt Q9BQ51 20-220)
T5 construct: also called dimeric PD-L2; PD-L2 (dimeric ligand); not shown: human IgG1 Fc constant region
T5 sequence: T1 sequence with A19V, S62P, L67S, I139V, H166P, A178T, Q179H, I194M

T6: Human b-PD-L2-His (human, UniProt Q9BQ51 20-220, biotinylated (b-); sites not stated)
T6 construct: Antigen of the MSD-SET measurements; also called biotinylated human PD-L2-His; not shown: His tag
T6 sequence: T1 sequence with A19V, S62P, L67S, I139V, H166P, A178T, Q179H, I194M

B1: BiPDL4-44 (antibody, V domains shown)
VH: QVQLVESGGGVIQPGRSLRLSCAASGFTFSAYLMHWVRQAPGKGLEWVAAIGYDGMNKYYADSVKGRFTISRDNSKNTLYLQMNSLRAEDTAVYYCARAGIEYSYAYTDYWGQGTLVTVSS
VL: EIVLTQSPGTLSLSPGERATLSCRASHSVVSSYLAWYQQKPGQAPRLLIYGASSREDGIPDRFSGSGSGTDFTLTISRLEPEDFAVYYCVQFGWWPPRTFGGGTKVEIK
notes: Fourth generation, IgG
B2: BiPDL4-24 Fab (Fab, V domains shown)
VH: B1 VH with I12V, S30D, A31E, L33G, A50V, M56L
VL: B1 VL with H27N, S53A, E56A, D57N
notes: Fab made by papain digestion of the IgG
B3: BiPDL4-24 (antibody, V domains shown)
VH: B1 VH with I12V, S30D, A31E, L33G, A50V, M56L
VL: B1 VL with H27N, S53A, E56A, D57N
notes: Fourth generation, IgG
B4: BiPDL4-34 Fab (Fab, V domains shown)
VH: B1 VH
VL: B1 VL with H27Q, S28F, V30Y, Y33D, S54A, E56A, D57A, V90M
notes: as for B2
B5: BiPDL4-14 Fab (Fab, V domains shown)
VH: B1 VH with I12V, S30D, A31E, L33G, A50V, M56L
VL: B1 VL with H27Q, S28F, V30Y, Y33D, S54T, E56K, D57T, V90L
notes: as for B2
B6: BiPDL4-44 Fab (Fab, V domains shown)
VH: B1 VH
VL: B1 VL
notes: as for B2
B7: BiPDL3-34 (antibody, V domains shown)
VH: QVQLQQWGAGLLKPSETLSLTCAVYGGSLSGYPWSWIRQPPGKGLEWIGETDVSGWTDYNPSLKSRVTISVDTSKNQFSLKLSSVTAADTAVYYCARDGRRMGTPSFDIWGQGTMVTVSS
VL: DIQMTQSPSSVSASVGDRVTITCRASQDISSFLAWYQQKPGKAPKLLIYAASSLQDGVPSRFSGSGSGTDFTLTISSLQPEDFATYYCQKSVYFPPTFGGGTKVEIK
notes: IgG; also called ADI-37468; 37468
B8: BiPDL3-13 Fab (Fab, V domains shown)
VH: B7 VH
VL: B7 VL with M4L, D28G, F32W, D56S, K90Q, S91Y
notes: as for B2
B9: BiPDL3-24 (antibody, V domains shown)
VH: B7 VH
VL: B7 VL with D28G, S31N, D56S, S91A
notes: IgG; also called ADI-37465; 37465
B10: BiPDL3-44 (antibody, V domains shown)
VH: B7 VH
VL: B7 VL with D28G, S31T, S53A, Q55H, D56S, K90R, S91A
notes: IgG; also called ADI-37475; 37475

Legend:
Cyno PD-L2-Fc [1] = molecular target: T1, Cyno PD-L2-Fc; assay: ForteBio, IgG, avid
Cyno PD-L1-Fc [2] = molecular target: T7, Cyno PD-L1-Fc (cynomolgus, UniProt G7PSE7 19-238); assay: ForteBio, IgG, avid
T7 construct: also called cynomolgus PD-L1
T7 sequence (G7PSE7 entry or part of it limits assumed): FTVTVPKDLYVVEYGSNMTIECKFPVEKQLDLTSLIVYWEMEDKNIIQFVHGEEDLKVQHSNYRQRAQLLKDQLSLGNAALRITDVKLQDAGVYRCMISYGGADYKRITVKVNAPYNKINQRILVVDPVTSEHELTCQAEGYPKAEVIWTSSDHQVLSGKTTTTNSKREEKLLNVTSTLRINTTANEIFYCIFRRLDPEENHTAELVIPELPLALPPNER

Mouse PD-L1-Fc [3] = molecular target: T8, Mouse PD-L1-Fc (mouse, UniProt Q9EP73 19-239, limits assumed); assay: ForteBio, IgG, avid
T8 construct: also called murine PD-L1; not shown: Fc
T8 sequence (Q9EP73 19-239 limits assumed): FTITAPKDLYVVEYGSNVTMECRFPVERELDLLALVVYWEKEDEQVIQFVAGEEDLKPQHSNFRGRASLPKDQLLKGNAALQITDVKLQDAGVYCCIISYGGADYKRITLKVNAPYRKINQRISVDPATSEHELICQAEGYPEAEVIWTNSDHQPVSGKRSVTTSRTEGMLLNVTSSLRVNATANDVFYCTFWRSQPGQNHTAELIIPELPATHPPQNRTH

Mouse PD-L2-Fc [4] = molecular target: T2, Mouse PD-L2-Fc; assay: ForteBio, IgG, avid
Human PD-L2-HIS [5] = molecular target: T3, Human PD-L2-HIS; assay: ForteBio, IgG, monovalent
Human PD-L1-HIS [6] = molecular target: T9, Human PD-L1-HIS (human, UniProt Q9NZQ7 19-238); assay: ForteBio, IgG, monovalent
T9 construct: also called HIS-tagged monovalent PD-L1; His-tagged human PD-L1; not shown: His tag
T9 sequence (Q9NZQ7 19-238 limits assumed): as the sequence (G7PSE7 entry or part of it limits assumed) above, with T33A, S34A, N62S, Q68R, R82Q, L173F, A185T, I192T, L215H counted along it

human PD-L2 on CHO cells = molecular target: T4, human PD-L2 on CHO cells; assay: cell-based or functional assay
human PD-L1 on CHO cells = human PD-L1 on CHO cells (human, UniProt Q9NZQ7 19-290); assay: cell-based or functional assay
Chain of human PD-L1 on CHO cells (Q9NZQ7 19-290 limits assumed): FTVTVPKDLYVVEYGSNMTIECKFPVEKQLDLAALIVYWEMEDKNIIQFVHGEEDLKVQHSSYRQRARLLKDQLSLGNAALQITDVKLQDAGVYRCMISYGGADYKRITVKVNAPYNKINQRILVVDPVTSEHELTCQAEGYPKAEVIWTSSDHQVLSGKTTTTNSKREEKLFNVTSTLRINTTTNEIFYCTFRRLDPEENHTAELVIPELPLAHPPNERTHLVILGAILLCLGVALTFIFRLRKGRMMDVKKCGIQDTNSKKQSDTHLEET

Human PD-L1-Fc [7] = molecular target: T10, Human PD-L1-Fc (human, UniProt Q9NZQ7 19-238); assay: ForteBio, Fab, monovalent
T10 construct: also called dimeric PD-L1; PD-L1 (dimeric ligand); not shown: human IgG1 Fc constant region
T10 sequence (Q9NZQ7 19-238 limits assumed): as the sequence (G7PSE7 entry or part of it limits assumed) above, with T33A, S34A, N62S, Q68R, R82Q, L173F, A185T, I192T, L215H counted along it
Procedure: (§1) ForteBio KD measurements—ForteBio affinity measurements were performed on an Octet® RED384 generally as previously described (see, e.g., Estep et al., 2013). Briefly, ForteBio affinity measurements were performed by loading IgGs on-line onto AHQ sensors. Sensors were equilibrated off-line in assay buffer for 30 min and then monitored on-line for 60 seconds for baseline establishment. Sensors with loaded IgGs were exposed to 100 nM antigen for 3 minutes, and afterwards were transferred to assay buffer for 3 min for off-rate measurement. For monovalent affinity assessment Fabs were used instead of IgGs. For this assessment the […] Fc fusion antigen was loaded on-line onto the AHQ sensors. Sensors were equilibrated off-line in assay buffer for 30 min and then monitored on-line for 60 seconds for baseline establishment. Sensors with loaded antigen were exposed to 100 nM Fab for 3 minutes, and afterwards they were transferred to assay buffer for 3 min for off-rate measurement. All kinetics were analyzed using the 1:1 binding model.

Human PD-L2-Fc [8] = molecular target: T5, Human PD-L2-Fc; assay: ForteBio, Fab, monovalent
Procedure: as §1

Human b-PD-L2-His [9] = molecular target: T6, Human b-PD-L2-His; assay: MSD-SET, Fab, monovalent
Procedure: (§2) Briefly, solution equilibrium titrations (SET) were performed in PBS +0.1% IgG-Free BSA (PBSF) with antigen held constant at 50 pM and incubated with 3- to 5-fold serial dilutions of Fab starting at 20 nM. Antibodies (20 nM in PBS) were coated onto standard bind MSD®-ECL plates overnight at 4° C. or at room temperature for 30 min. Plates were then blocked by BSA for 30 min with shaking at 700 rpm, followed by three washes with wash buffer (PBSF+0.05% Tween 20). SET samples were applied and incubated on the plates for 150 s with shaking at 700 rpm followed by one wash. Antigen captured on a plate was detected with 250 ng/mL sulfotag-labeled streptavidin in PBSF by incubation on the plate for 3 min. The plates were washed three times with wash buffer and then read on the MSD® Sector Imager 2400 instrument using 1× Read Buffer T with surfactant. The percent free antigen was plotted as a function of titrated antibody in Prism and fit to a quadratic equation to extract the KD. To improve throughput, liquid handling robots were used throughout MSD®-SET experiments, including SET sample preparation.

Human b-PD-L1-His [10] = molecular target: T11, Human b-PD-L1-His (human, UniProt Q9NZQ7 19-238, biotinylated (b-); sites not stated); assay: MSD-SET, Fab, monovalent
T11 construct: Antigen of the MSD-SET measurements; also called biotinylated human PD-L1-His; not shown: His tag
T11 sequence (Q9NZQ7 19-238 limits assumed): as the sequence (G7PSE7 entry or part of it limits assumed) above, with T33A, S34A, N62S, Q68R, R82Q, L173F, A185T, I192T, L215H counted along it
Procedure: as §2

Human PD-L1-Fc [11] = molecular target: T10, Human PD-L1-Fc; assay: ForteBio Octet, Fab, monovalent
Procedure: as §1

Human PD-L2-Fc [12] = molecular target: T5, Human PD-L2-Fc; assay: ForteBio Octet, Fab, monovalent
Procedure: as §1

Human b-PD-L2-His [13] = molecular target: T6, Human b-PD-L2-His; assay: MSD-SET, Fab, monovalent; remark: listed apart in the source
Procedure: as §2

Human b-PD-L1-His [14] = molecular target: T11, Human b-PD-L1-His; assay: MSD-SET, Fab, monovalent; remark: listed apart in the source
Procedure: as §2

Human PD-L2-HIS [15] = molecular target: T3, Human PD-L2-HIS; assay: ForteBio, IgG, monovalent; remark: listed apart in the source
Human PD-L1-HIS [16] = molecular target: T9, Human PD-L1-HIS; assay: ForteBio, IgG, monovalent; remark: listed apart in the source
Cyno PD-L2-Fc [17] = molecular target: T1, Cyno PD-L2-Fc; assay: ForteBio, IgG, avid; remark: listed apart in the source
Cyno PD-L1-Fc [18] = molecular target: T7, Cyno PD-L1-Fc; assay: ForteBio, IgG, avid; remark: listed apart in the source
Mouse PD-L1-Fc [19] = molecular target: T8, Mouse PD-L1-Fc; assay: ForteBio, IgG, avid; remark: listed apart in the source
Mouse PD-L2-Fc [20] = molecular target: T2, Mouse PD-L2-Fc; assay: ForteBio, IgG, avid; remark: listed apart in the source

Binder	Kd (Human PD-L1-Fc [7]) [nM]	Kd (Human PD-L2-Fc [8]) [nM]	Kd (Human b-PD-L2-His [9]) [nM]	Kd (Human PD-L2-Fc [12]) [nM]	Kd (Human PD-L2-HIS [15]) [nM]	Kd (Human PD-L1-HIS [16]) [nM]	Kd (Cyno PD-L2-Fc [17]) [nM]	Kd (Cyno PD-L1-Fc [18]) [nM]	Kd (Mouse PD-L1-Fc [19]) [nM]	Kd (Mouse PD-L2-Fc [20]) [nM]	further results
B1	–	–	–	–	–	–	–	–	–	–	Kd (Cyno PD-L2-Fc [1]): 0.417 nM; Kd (Cyno PD-L1-Fc [2]): 0.555 nM; Kd (Mouse PD-L1-Fc [3]): 0.793 nM; Kd (Mouse PD-L2-Fc [4]): 4.14 nM; Kd (Human PD-L2-HIS [5]): 0.889 nM; Kd (Human PD-L1-HIS [6]): 7.89 nM; EC50 (read off the curve); Fold induction of luciferase, Promega: CHO-PD-L1/PD-L2 dual cells with PD-1 Jurkat reporter cells (PD-L1 and PD-L2 not separable) (human PD-L2 on CHO cells): ~1 nM; EC50 (read off the curve); Fold induction of luciferase, Promega: CHO-PD-L1/PD-L2 dual cells with PD-1 Jurkat reporter cells (PD-L1 and PD-L2 not separable) (human PD-L1 on CHO cells): ~1 nM
B2	6.57	0.475	0.12	–	–	–	–	–	–	–	–
B3	–	–	–	–	–	–	–	–	–	–	Kd (Cyno PD-L2-Fc [1]): 0.458 nM; Kd (Cyno PD-L1-Fc [2]): 0.838 nM; Kd (Mouse PD-L1-Fc [3]): 0.677 nM; Kd (Mouse PD-L2-Fc [4]): 6.77 nM; Kd (Human PD-L2-HIS [5]): 0.497 nM; Kd (Human PD-L1-HIS [6]): 7.24 nM
B4	2.17	0.56	0.052	0.56	–	–	–	–	–	–	Kd (Human b-PD-L1-His [10]): 0.96 nM; Kd (Human PD-L1-Fc [11]): 6.85 nM; Kd (Human b-PD-L2-His [13]): 0.052 nM; Kd (Human b-PD-L1-His [14]): 0.96 nM
B5	0.692	0.402	0.11	0.402	–	–	–	–	–	–	Kd (Human b-PD-L1-His [10]): 0.12 nM; Kd (Human PD-L1-Fc [11]): 2.26 nM; Kd (Human b-PD-L2-His [13]): 0.11 nM; Kd (Human b-PD-L1-His [14]): 0.12 nM
B6	6	0.437	0.15	–	–	–	–	–	–	–	–
B7	–	–	–	–	0.844	17.8	0.677	0.431	31.6	0.484	–
B8	–	–	–	16	–	–	–	–	–	–	–
B9	–	–	–	–	0.868	13.4	0.605	0.396	2.65	0.553	–
B10	–	–	–	–	1.45	30.2	0.603	0.455	42	0.552	–
